Assay results published in the supplement of paper PMC10567573.

B1: ZNF449 (parent)
chain: HKKKSPGEKPHRCPQCGKCFARKS
B2: TCEB3B (parent)
chain: STTALGDKQRKANESKGTRESWDS
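Also: lentivirally expressed fusions sorted by FACS into six bins by GFP to DsRed ratio, PSI derived from sequencing read proportions per bin multiplied by bin number.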

Variants of: B1
Experiment: protein stability index of a GFP-peptide fusion (GPS, HEK-293T) (PSI 1-6); higher = more stable
Conditions: c terminus: a fixed tail appended
HHKKSPGEKPHRCPQCGKCFARKS [K2H] showed a protein stability index of 3.27. HGKKSPGEKPHRCPQCGKCFARKS [K2G] gave a protein stability index of 3.43. With HDKKSPGEKPHRCPQCGKCFARKS [K2D] the protein stability index was 2.92. In the case of HMKKSPGEKPHRCPQCGKCFARKS [K2M], the protein stability index is reported as 2.52. With HCKKSPGEKPHRCPQCGKCFARKS [K2C] the protein stability index was 3.21. HLKKSPGEKPHRCPQCGKCFARKS [K2L] gave a protein stability index of 3.41. Work on HFKKSPGEKPHRCPQCGKCFARKS [K2F] yielded a protein stability index of 3.32. Work on HAKKSPGEKPHRCPQCGKCFARKS [K2A] yielded a protein stability index of 3.42. With HIKKSPGEKPHRCPQCGKCFARKS [K2I] the protein stability index was 2.98. Variant RKKKSPGEKPHRCPQCGKCFARKS [H1R] has a protein stability index of 3.53. In the case of CKKKSPGEKPHRCPQCGKCFARKS [H1C], the protein stability index is reported as 3.85. For DKKKSPGEKPHRCPQCGKCFARKS [H1D], the protein stability index was 3.73. Work on WKKKSPGEKPHRCPQCGKCFARKS [H1W] yielded a protein stability index of 2.7. LKKKSPGEKPHRCPQCGKCFARKS [H1L] showed a protein stability index of 2.54. Variant NKKKSPGEKPHRCPQCGKCFARKS [H1N] has a protein stability index of 4.13. SKKKSPGEKPHRCPQCGKCFARKS [H1S] showed a protein stability index of 4.38. With VKKKSPGEKPHRCPQCGKCFARKS [H1V] the protein stability index was 3.15. Variant YKKKSPGEKPHRCPQCGKCFARKS [H1Y] has a protein stability index of 3.16. In the case of TKKKSPGEKPHRCPQCGKCFARKS [H1T], the protein stability index is reported as 2.88. With AKKKSPGEKPHRCPQCGKCFARKS [H1A] the protein stability index was 3.37. IKKKSPGEKPHRCPQCGKCFARKS [H1I] showed a protein stability index of 2.06. Work on KKKKSPGEKPHRCPQCGKCFARKS [H1K] yielded a protein stability index of 3.5. For GKKKSPGEKPHRCPQCGKCFARKS [H1G], the protein stability index was 3.68.

Variants of: B2
Experiment: as above
Conditions: c terminus: a fixed tail appended
STTALGDKQRYANESKGTRESWDS [K11Y] showed a protein stability index of 4. Work on STTALGDKQREANESKGTRESWDS [K11E] yielded a protein stability index of 4.72. STTALGDKQRFANESKGTRESWDS [K11F] showed a protein stability index of 3.79. Variant STTALGDKQRWANESKGTRESWDS [K11W] has a protein stability index of 3.99. With STTALGDKQRCANESKGTRESWDS [K11C] the protein stability index was 4.53. SFTALGDKQRKANESKGTRESWDS [T2F] gave a protein stability index of 3.75. With SLTALGDKQRKANESKGTRESWDS [T2L] the protein stability index was 3.67. SYTALGDKQRKANESKGTRESWDS [T2Y] showed a protein stability index of 3.33. For SATALGDKQRKANESKGTRESWDS [T2A], the protein stability index was 4.32. SETALGDKQRKANESKGTRESWDS [T2E] gave a protein stability index of 4.05. With SHTALGDKQRKANESKGTRESWDS [T2H] the protein stability index was 3.77. SPTALGDKQRKANESKGTRESWDS [T2P] showed a protein stability index of 3.94. Variant SMTALGDKQRKANESKGTRESWDS [T2M] has a protein stability index of 3.94. STTALIDKQRKANESKGTRESWDS [G6I] showed a protein stability index of 3.59. In the case of STTALSDKQRKANESKGTRESWDS [G6S], the protein stability index is reported as 3.85. In the case of STTALWDKQRKANESKGTRESWDS [G6W], the protein stability index is reported as 3.29. Work on STTALRDKQRKANESKGTRESWDS [G6R] yielded a protein stability index of 4.07. Variant STTALEDKQRKANESKGTRESWDS [G6E] has a protein stability index of 4.31. In the case of STTALVDKQRKANESKGTRESWDS [G6V], the protein stability index is reported as 2.98. STTALGDKQRKASESKGTRESWDS [N13S] showed a protein stability index of 4.14. Variant STTALGDKQRKAYESKGTRESWDS [N13Y] has a protein stability index of 3.22. In the case of STTALGDKQRKADESKGTRESWDS [N13D], the protein stability index is reported as 4.64. STTALGDKQRKAHESKGTRESWDS [N13H] gave a protein stability index of 3.35. In the case of STTALGDKQRKAGESKGTRESWDS [N13G], the protein stability index is reported as 3.45. In the case of STTALGDKQRKAIESKGTRESWDS [N13I], the protein stability index is reported as 3.59. For STTALGDKQRKAQESKGTRESWDS [N13Q], the protein stability index was 4.1. STTALGDKQRKAWESKGTRESWDS [N13W] gave a protein stability index of 3.09. With STTALGDKQRKAVESKGTRESWDS [N13V] the protein stability index was 4.12. STSALGDKQRKANESKGTRESWDS [T3S] showed a protein stability index of 3.57. For STVALGDKQRKANESKGTRESWDS [T3V], the protein stability index was 4.36. STDALGDKQRKANESKGTRESWDS [T3D] gave a protein stability index of 3.98. For STLALGDKQRKANESKGTRESWDS [T3L], the protein stability index was 3.83. For STPALGDKQRKANESKGTRESWDS [T3P], the protein stability index was 4.02. STTALGDKQRKANESKGTRESRDS [W22R] showed a protein stability index of 5.82. In the case of STTALGDKQRKANESKGTRESGDS [W22G], the protein stability index is reported as 5.53. STTALGDKQRKANESKGTRESDDS [W22D] showed a protein stability index of 5.42. STTALGDKQRKANESKGTRESADS [W22A] gave a protein stability index of 5.29. In the case of STTALGDKQRKANESKGTRESKDS [W22K], the protein stability index is reported as 5.7. With STTALGDKQRKANESKGTRESNDS [W22N] the protein stability index was 5.83. STTALGCKQRKANESKGTRESWDS [D7C] showed a protein stability index of 3.57. STTALGYKQRKANESKGTRESWDS [D7Y] gave a protein stability index of 3. For STTALGRKQRKANESKGTRESWDS [D7R], the protein stability index was 3.88. In the case of STTALGGKQRKANESKGTRESWDS [D7G], the protein stability index is reported as 3.83. With STTALGIKQRKANESKGTRESWDS [D7I] the protein stability index was 3.23. In the case of STTALGKKQRKANESKGTRESWDS [D7K], the protein stability index is reported as 4.05. With STTALGQKQRKANESKGTRESWDS [D7Q] the protein stability index was 3.15. Variant STTALGSKQRKANESKGTRESWDS [D7S] has a protein stability index of 3.43. STTALGDKQRKANESKITRESWDS [G17I] gave a protein stability index of 2.92. STTALGDKQRKANESKMTRESWDS [G17M] gave a protein stability index of 3.43. Variant STTALGDKQRKANESKDTRESWDS [G17D] has a protein stability index of 4.55. In the case of STTALGDKQRKANESKVTRESWDS [G17V], the protein stability index is reported as 3.55. Variant STTALGDKQRKANESKWTRESWDS [G17W] has a protein stability index of 3.51. Variant STTALGDKQRKANESKATRESWDS [G17A] has a protein stability index of 3.78. With STTALGDKQRKANESKPTRESWDS [G17P] the protein stability index was 4.42. For STTALGDKQRKANESKGTREGWDS [S21G], the protein stability index was 5.25. Variant STTALGDKQRKANESKGTRELWDS [S21L] has a protein stability index of 4.99. STTALGDKQRKANESKGTREAWDS [S21A] showed a protein stability index of 5.05. With STTALGDKQRKANESKGTREIWDS [S21I] the protein stability index was 4.93. For STTALGDKQRKANESKGTRETWDS [S21T], the protein stability index was 3.57. STTALGDKQRKANESKGTREKWDS [S21K] showed a protein stability index of 4.97. Variant STTALGDKQRKANESKGTREDWDS [S21D] has a protein stability index of 5.1. For STTYLGDKQRKANESKGTRESWDS [A4Y], the protein stability index was 3.36. Work on STTHLGDKQRKANESKGTRESWDS [A4H] yielded a protein stability index of 3.82. Variant STTRLGDKQRKANESKGTRESWDS [A4R] has a protein stability index of 3.34. STTLLGDKQRKANESKGTRESWDS [A4L] showed a protein stability index of 3.49. With STTSLGDKQRKANESKGTRESWDS [A4S] the protein stability index was 3.81. In the case of STTVLGDKQRKANESKGTRESWDS [A4V], the protein stability index is reported as 3.96. STTALGDKQKKANESKGTRESWDS [R10K] gave a protein stability index of 4.25. STTALGDKQTKANESKGTRESWDS [R10T] showed a protein stability index of 4.33. STTALGDKQFKANESKGTRESWDS [R10F] showed a protein stability index of 4.15. STTALGDKQPKANESKGTRESWDS [R10P] showed a protein stability index of 4.43.
